Results as given in US20250188176A1.
Substitutions are numbered along the chain they refer to. Blank lines part the entries; values can stand above or below the binder they belong to.

Legend:
[1] = molecular target: canine IL-4RA (construct not given) (canine); test: SPR, combinatorial Fab-SASA clone
[2] = molecular target: canine IL-4RA (construct not given) (canine); test: SPR, IL-4RA immobilised, periplasmic Fab

Kd [1]: 0.94 nM
koff [1]: 0.000138 s⁻¹
kon [1]: 147000 M⁻¹ s⁻¹
B1: AHF21170 (Fab, V domains shown, not shown: small tags and cut ends)
VH: EVQLVESGGDLVKPGGSLRLSCVASGFTFRDYAMTWVRQAPGKGLQWVSLINGSGGKTYYADAVKGRFTISRDNAKNTLYLQMNSLRAEDTAVYYCAVDRLTKTIRPQYYGLWVWGQGTLVTVSS
VL: DIVMTQTPLSLSVSPGETASISCRSSQSLTYSIGYNYLDWYLQKPGQSPQGLIYLGSKRASGVPDRFSGSGSGTDFTLRISRVEANDTGVYYCMQGLQSPLTFGQGTKLEIKR

Kd [1]: 0.44 nM
koff [1]: 0.000151 s⁻¹
kon [1]: 344000 M⁻¹ s⁻¹
B2: AHF21201 (Fab, V domains shown, not shown: small tags and cut ends)
VH: B1 VH with V114H
VL: B1 VL with T30L, S57H, T102G

Kd [1]: 0.395 nM
koff [1]: 8.18e-05 s⁻¹
kon [1]: 207000 M⁻¹ s⁻¹
B3: AHF21199 (Fab, V domains shown, not shown: small tags and cut ends)
VH: B1 VH
VL: B1 VL with S57H, T102G

Kd [1]: 0.68 nM
koff [1]: 0.000152 s⁻¹
kon [1]: 223000 M⁻¹ s⁻¹
B4: AHF21190 (Fab, V domains shown, not shown: small tags and cut ends)
VH: B1 VH
VL: B1 VL with T30L, S57H, T102S

Kd [1]: 0.627 nM
koff [1]: 0.000133 s⁻¹
kon [1]: 212000 M⁻¹ s⁻¹
B5: AHF21194 (Fab, V domains shown, not shown: small tags and cut ends)
VH: B1 VH
VL: B1 VL with T30L, T102S

Kd [1]: 0.769 nM
koff [1]: 0.000132 s⁻¹
kon [1]: 172000 M⁻¹ s⁻¹
B6: AHF21187 (Fab, V domains shown, not shown: small tags and cut ends)
VH: B1 VH with L101K
VL: B1 VL with S57H, T102G

Kd [1]: 0.857 nM
koff [1]: 0.000278 s⁻¹
kon [1]: 325000 M⁻¹ s⁻¹
B7: AHF21188 (Fab, V domains shown, not shown: small tags and cut ends)
VH: B1 VH with N52S, V114H
VL: B1 VL with T102G

Kd [1]: 1.89 nM
koff [1]: 0.000543 s⁻¹
kon [1]: 287000 M⁻¹ s⁻¹
B8: AHF21184 (Fab, V domains shown, not shown: small tags and cut ends)
VH: B1 VH with N52S, V114H
VL: B1 VL with T30L, T102S

Kd [1]: 0.466 nM
koff [1]: 8.27e-05 s⁻¹
kon [1]: 178000 M⁻¹ s⁻¹
B9: AHF21178 (Fab, V domains shown, not shown: small tags and cut ends)
VH: B1 VH
VL: B1 VL with T102S

Kd [1]: 0.74 nM
koff [1]: 0.000168 s⁻¹
kon [1]: 226000 M⁻¹ s⁻¹
B10: AHF21172 (Fab, V domains shown, not shown: small tags and cut ends)
VH: B1 VH
VL: B1 VL with T30L, S57H

Kd [1]: 0.561 nM
koff [1]: 9.52e-05 s⁻¹
kon [1]: 170000 M⁻¹ s⁻¹
B11: AHF21177 (Fab, V domains shown, not shown: small tags and cut ends)
VH: B1 VH
VL: B1 VL with T102G

Kd [1]: 0.875 nM
koff [1]: 0.000127 s⁻¹
kon [1]: 146000 M⁻¹ s⁻¹
B12: AHF21200 (Fab, V domains shown, not shown: small tags and cut ends)
VH: B1 VH with L101K
VL: B1 VL with G96P, T102S

Kd [1]: 0.309 nM
koff [1]: 9.11e-05 s⁻¹
kon [1]: 295000 M⁻¹ s⁻¹
B13: AHF21176 (Fab, V domains shown, not shown: small tags and cut ends)
VH: B1 VH with L101K, V114H
VL: B1 VL with S57H, T102G

Improvement over parental [2]: 2 fold
RU max [2]: 196 RU
koff [2]: 0.000143 s⁻¹
B14: FJ2246MP06F11 (Fab, V domains shown)
VH: B1 VH with S54D, G56S
VL: B1 VL with T30L

Improvement over parental [2]: 1 fold
RU max [2]: 105 RU
koff [2]: 0.00028 s⁻¹
B15: FJ2246MP06G06 (Parental Fab of TB640_005) (Fab, V domains shown)
VH: B1 VH with N52S
VL: B1 VL with T30L

Kd [1]: 0.606 nM
koff [1]: 9.69e-05 s⁻¹
kon [1]: 160000 M⁻¹ s⁻¹
B16: AHF21173 (Fab, V domains shown, not shown: small tags and cut ends)
VH: B1 VH with L101K
VL: B1 VL with S57H, T102S

Kd [1]: 0.521 nM
koff [1]: 9.58e-05 s⁻¹
kon [1]: 184000 M⁻¹ s⁻¹
B17: AHF21174 (Fab, V domains shown, not shown: small tags and cut ends)
VH: B1 VH
VL: B1 VL with S57H, T102S

Kd [1]: 0.47 nM
koff [1]: 0.000134 s⁻¹
kon [1]: 285000 M⁻¹ s⁻¹
B18: AHF21171 (Fab, V domains shown, not shown: small tags and cut ends)
VH: B1 VH with V114H
VL: B1 VL with T30L, S57H, T102S

Kd [1]: 0.992 nM
koff [1]: 0.000192 s⁻¹
kon [1]: 193000 M⁻¹ s⁻¹
B19: AHF21195 (Fab, V domains shown, not shown: small tags and cut ends)
VH: B1 VH with L101K
VL: B1 VL with T30L, T102S

Kd [1]: 0.442 nM
koff [1]: 0.000126 s⁻¹
kon [1]: 286000 M⁻¹ s⁻¹
B20: AHF21182 (Fab, V domains shown, not shown: small tags and cut ends)
VH: B1 VH with V114H
VL: B1 VL with S57H, T102L

Kd [1]: 0.485 nM
koff [1]: 0.000148 s⁻¹
kon [1]: 306000 M⁻¹ s⁻¹
B21: AHF21186 (Fab, V domains shown, not shown: small tags and cut ends)
VH: B1 VH with V114H
VL: B1 VL with T30L, S57H

Kd [1]: 0.366 nM
koff [1]: 9.48e-05 s⁻¹
kon [1]: 259000 M⁻¹ s⁻¹
B22: AHF21191 (Fab, V domains shown, not shown: small tags and cut ends)
VH: B1 VH with V114H
VL: B1 VL with T102G

Kd [1]: 0.259 nM
koff [1]: 5.68e-05 s⁻¹
kon [1]: 219000 M⁻¹ s⁻¹
B23: AHF21180 (Fab, V domains shown, not shown: small tags and cut ends)
VH: B1 VH with L101K, V114H
VL: B1 VL with G96P
